Assay results published in US20140087995A1 (published 2014).
Numbered stars: 1 amine (or outer) side, 2 acyl side, 3 side chain; on linkers, the order of the positions; unused ones are H or OH. Bridge positions count the residues as written; N and C are the ends. Side chains are listed from the residue outwards. Ends that are not written are not given here. * marks the point of attachment. C20 diacid = O=C(O)CCCCCCCCCCCCCCCCCCC(=O)*; γGlu = O=C(O)[C@H](CCC(=O)[*:2])N[*:1]; AEEA = NCCOCCOCC(=O)O

T1: human calcitonin receptor (human, UniProt P30988 25-474)
T1 sequence (looked up): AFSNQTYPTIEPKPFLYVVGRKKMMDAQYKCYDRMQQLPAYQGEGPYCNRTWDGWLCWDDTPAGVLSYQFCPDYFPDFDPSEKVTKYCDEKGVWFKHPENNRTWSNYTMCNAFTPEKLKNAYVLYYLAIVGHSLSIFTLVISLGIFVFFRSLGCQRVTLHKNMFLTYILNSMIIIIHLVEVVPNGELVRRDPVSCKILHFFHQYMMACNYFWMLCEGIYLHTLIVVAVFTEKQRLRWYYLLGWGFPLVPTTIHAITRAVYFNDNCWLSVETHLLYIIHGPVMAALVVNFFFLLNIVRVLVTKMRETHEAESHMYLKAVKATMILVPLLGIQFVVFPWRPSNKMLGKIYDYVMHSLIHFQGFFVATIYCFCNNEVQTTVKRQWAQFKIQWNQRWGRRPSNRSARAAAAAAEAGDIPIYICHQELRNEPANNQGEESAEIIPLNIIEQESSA

T2: human amylin receptor (amylin 3(a) receptor: human calcitonin receptor co-expressed with RAMP-3) (human, UniProt P30988 25-474; O60896 24-148, limits assumed)
T2 sequence (looked up) 1: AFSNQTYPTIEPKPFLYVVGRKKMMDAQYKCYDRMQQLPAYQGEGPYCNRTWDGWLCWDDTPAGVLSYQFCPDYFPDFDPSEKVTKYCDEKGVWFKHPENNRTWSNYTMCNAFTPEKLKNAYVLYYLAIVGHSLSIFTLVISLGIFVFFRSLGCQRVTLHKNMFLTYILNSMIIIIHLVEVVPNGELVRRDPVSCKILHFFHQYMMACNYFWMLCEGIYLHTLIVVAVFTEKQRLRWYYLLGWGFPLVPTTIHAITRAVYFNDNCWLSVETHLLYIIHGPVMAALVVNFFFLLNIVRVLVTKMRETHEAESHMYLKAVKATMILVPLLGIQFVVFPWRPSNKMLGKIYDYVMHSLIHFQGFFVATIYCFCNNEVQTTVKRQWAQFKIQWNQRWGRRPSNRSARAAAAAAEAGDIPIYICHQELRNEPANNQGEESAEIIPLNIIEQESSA
T2 sequence (looked up) 2: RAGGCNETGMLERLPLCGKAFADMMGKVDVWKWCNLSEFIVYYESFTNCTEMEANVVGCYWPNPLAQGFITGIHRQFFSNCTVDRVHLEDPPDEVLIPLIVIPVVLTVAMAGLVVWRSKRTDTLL

B1: N^ε1-[2-[2-[2-[[(4S)-4-carboxy-4-(19-carboxynonadecanoylamino)butanoyl]amino]ethoxy]ethoxy]acetyl]-[Thr14,Arg17,Pro21,Pro27,Pro31]-h-amylin (peptide)
peptide: K([AEEA-γGlu-C20 diacid])CNTATCATQRLATFLRHSSPNFGAIPSSTPVGSNTY-NH2
modifications: disulfide 2-7; N-terminus assumed
SMILES: CC[C@H](C)[C@H](NC(=O)[C@H](C)NC(=O)CNC(=O)[C@H](Cc1ccccc1)NC(=O)[C@H](CC(N)=O)NC(=O)[C@@H]1CCCN1C(=O)[C@H](CO)NC(=O)[C@H](CO)NC(=O)[C@H](Cc1c[nH]cn1)NC(=O)[C@H](CCCNC(=N)N)NC(=O)[C@H](CC(C)C)NC(=O)[C@H](Cc1ccccc1)NC(=O)[C@@H](NC(=O)[C@H](C)NC(=O)[C@H](CC(C)C)NC(=O)[C@H](CCCNC(=N)N)NC(=O)[C@H](CCC(N)=O)NC(=O)[C@@H](NC(=O)[C@H](C)NC(=O)[C@@H]1CSSC[C@H](NC(=O)[C@@H](N)CCCCNC(=O)COCCOCCNC(=O)CC[C@H](NC(=O)CCCCCCCCCCCCCCCCCCC(=O)O)C(=O)O)C(=O)N[C@@H](CC(N)=O)C(=O)N[C@@H]([C@@H](C)O)C(=O)N[C@@H](C)C(=O)N[C@@H]([C@@H](C)O)C(=O)N1)[C@@H](C)O)[C@@H](C)O)C(=O)N1CCC[C@H]1C(=O)N[C@@H](CO)C(=O)N[C@@H](CO)C(=O)N[C@H](C(=O)N1CCC[C@H]1C(=O)N[C@H](C(=O)NCC(=O)N[C@@H](CO)C(=O)N[C@@H](CC(N)=O)C(=O)N[C@H](C(=O)N[C@@H](Cc1ccc(O)cc1)C(N)=O)[C@@H](C)O)C(C)C)[C@@H](C)O
notes: also called compound 75
B2: N^ε1-[(4S)-4-carboxy-4-(19-carboxynonadecanoylamino)butanoyl]-[Arg14,Arg17,Pro21,Pro27]-h-amylin (peptide)
peptide: K([γGlu-C20 diacid])CNTATCATQRLARFLRHSSPNFGAIPSSTNVGSNTY-NH2
modifications: disulfide 2-7; N-terminus assumed
SMILES: CC[C@H](C)[C@H](NC(=O)[C@H](C)NC(=O)CNC(=O)[C@H](Cc1ccccc1)NC(=O)[C@H](CC(N)=O)NC(=O)[C@@H]1CCCN1C(=O)[C@H](CO)NC(=O)[C@H](CO)NC(=O)[C@H](Cc1c[nH]cn1)NC(=O)[C@H](CCCNC(=N)N)NC(=O)[C@H](CC(C)C)NC(=O)[C@H](Cc1ccccc1)NC(=O)[C@H](CCCNC(=N)N)NC(=O)[C@H](C)NC(=O)[C@H](CC(C)C)NC(=O)[C@H](CCCNC(=N)N)NC(=O)[C@H](CCC(N)=O)NC(=O)[C@@H](NC(=O)[C@H](C)NC(=O)[C@@H]1CSSC[C@H](NC(=O)[C@@H](N)CCCCNC(=O)CC[C@H](NC(=O)CCCCCCCCCCCCCCCCCCC(=O)O)C(=O)O)C(=O)N[C@@H](CC(N)=O)C(=O)N[C@@H]([C@@H](C)O)C(=O)N[C@@H](C)C(=O)N[C@@H]([C@@H](C)O)C(=O)N1)[C@@H](C)O)C(=O)N1CCC[C@H]1C(=O)N[C@@H](CO)C(=O)N[C@@H](CO)C(=O)N[C@H](C(=O)N[C@@H](CC(N)=O)C(=O)N[C@H](C(=O)NCC(=O)N[C@@H](CO)C(=O)N[C@@H](CC(N)=O)C(=O)N[C@H](C(=O)N[C@@H](Cc1ccc(O)cc1)C(N)=O)[C@@H](C)O)C(C)C)[C@@H](C)O
notes: also called compound 83
B3: N^ε1-[(4S)-4-carboxy-4-(19-carboxynonadecanoylamino)butanoyl]-[Ala14,Arg17,Pro21,Pro27,His34]-h-amylin (peptide)
peptide: K([γGlu-C20 diacid])CNTATCATQRLAAFLRHSSPNFGAIPSSTNVGHNTY-NH2
modifications: disulfide 2-7; N-terminus assumed
SMILES: CC[C@H](C)[C@H](NC(=O)[C@H](C)NC(=O)CNC(=O)[C@H](Cc1ccccc1)NC(=O)[C@H](CC(N)=O)NC(=O)[C@@H]1CCCN1C(=O)[C@H](CO)NC(=O)[C@H](CO)NC(=O)[C@H](Cc1c[nH]cn1)NC(=O)[C@H](CCCNC(=N)N)NC(=O)[C@H](CC(C)C)NC(=O)[C@H](Cc1ccccc1)NC(=O)[C@H](C)NC(=O)[C@H](C)NC(=O)[C@H](CC(C)C)NC(=O)[C@H](CCCNC(=N)N)NC(=O)[C@H](CCC(N)=O)NC(=O)[C@@H](NC(=O)[C@H](C)NC(=O)[C@@H]1CSSC[C@H](NC(=O)[C@@H](N)CCCCNC(=O)CC[C@H](NC(=O)CCCCCCCCCCCCCCCCCCC(=O)O)C(=O)O)C(=O)N[C@@H](CC(N)=O)C(=O)N[C@@H]([C@@H](C)O)C(=O)N[C@@H](C)C(=O)N[C@@H]([C@@H](C)O)C(=O)N1)[C@@H](C)O)C(=O)N1CCC[C@H]1C(=O)N[C@@H](CO)C(=O)N[C@@H](CO)C(=O)N[C@H](C(=O)N[C@@H](CC(N)=O)C(=O)N[C@H](C(=O)NCC(=O)N[C@@H](Cc1c[nH]cn1)C(=O)N[C@@H](CC(N)=O)C(=O)N[C@H](C(=O)N[C@@H](Cc1ccc(O)cc1)C(N)=O)[C@@H](C)O)C(C)C)[C@@H](C)O
notes: also called compound 93
B4: N^ε1-[(4S)-4-carboxy-4-(19-carboxynonadecanoylamino)butanoyl]-[Arg14,Arg17,Pro21,Pro27,Pro34]-h-amylin (peptide)
peptide: K([γGlu-C20 diacid])CNTATCATQRLARFLRHSSPNFGAIPSSTNVGPNTY-NH2
modifications: disulfide 2-7; N-terminus assumed
SMILES: CC[C@H](C)[C@H](NC(=O)[C@H](C)NC(=O)CNC(=O)[C@H](Cc1ccccc1)NC(=O)[C@H](CC(N)=O)NC(=O)[C@@H]1CCCN1C(=O)[C@H](CO)NC(=O)[C@H](CO)NC(=O)[C@H](Cc1c[nH]cn1)NC(=O)[C@H](CCCNC(=N)N)NC(=O)[C@H](CC(C)C)NC(=O)[C@H](Cc1ccccc1)NC(=O)[C@H](CCCNC(=N)N)NC(=O)[C@H](C)NC(=O)[C@H](CC(C)C)NC(=O)[C@H](CCCNC(=N)N)NC(=O)[C@H](CCC(N)=O)NC(=O)[C@@H](NC(=O)[C@H](C)NC(=O)[C@@H]1CSSC[C@H](NC(=O)[C@@H](N)CCCCNC(=O)CC[C@H](NC(=O)CCCCCCCCCCCCCCCCCCC(=O)O)C(=O)O)C(=O)N[C@@H](CC(N)=O)C(=O)N[C@@H]([C@@H](C)O)C(=O)N[C@@H](C)C(=O)N[C@@H]([C@@H](C)O)C(=O)N1)[C@@H](C)O)C(=O)N1CCC[C@H]1C(=O)N[C@@H](CO)C(=O)N[C@@H](CO)C(=O)N[C@H](C(=O)N[C@@H](CC(N)=O)C(=O)N[C@H](C(=O)NCC(=O)N1CCC[C@H]1C(=O)N[C@@H](CC(N)=O)C(=O)N[C@H](C(=O)N[C@@H](Cc1ccc(O)cc1)C(N)=O)[C@@H](C)O)C(C)C)[C@@H](C)O
notes: also called compound 65
B5: N^ε1-[(4S)-4-carboxy-4-(19-carboxynonadecanoylamino)butanoyl]-[Arg17,Pro21,Pro27,Arg34]-h-amylin (peptide)
peptide: K([γGlu-C20 diacid])CNTATCATQRLANFLRHSSPNFGAIPSSTNVGRNTY-NH2
modifications: disulfide 2-7; N-terminus assumed
SMILES: CC[C@H](C)[C@H](NC(=O)[C@H](C)NC(=O)CNC(=O)[C@H](Cc1ccccc1)NC(=O)[C@H](CC(N)=O)NC(=O)[C@@H]1CCCN1C(=O)[C@H](CO)NC(=O)[C@H](CO)NC(=O)[C@H](Cc1c[nH]cn1)NC(=O)[C@H](CCCNC(=N)N)NC(=O)[C@H](CC(C)C)NC(=O)[C@H](Cc1ccccc1)NC(=O)[C@H](CC(N)=O)NC(=O)[C@H](C)NC(=O)[C@H](CC(C)C)NC(=O)[C@H](CCCNC(=N)N)NC(=O)[C@H](CCC(N)=O)NC(=O)[C@@H](NC(=O)[C@H](C)NC(=O)[C@@H]1CSSC[C@H](NC(=O)[C@@H](N)CCCCNC(=O)CC[C@H](NC(=O)CCCCCCCCCCCCCCCCCCC(=O)O)C(=O)O)C(=O)N[C@@H](CC(N)=O)C(=O)N[C@@H]([C@@H](C)O)C(=O)N[C@@H](C)C(=O)N[C@@H]([C@@H](C)O)C(=O)N1)[C@@H](C)O)C(=O)N1CCC[C@H]1C(=O)N[C@@H](CO)C(=O)N[C@@H](CO)C(=O)N[C@H](C(=O)N[C@@H](CC(N)=O)C(=O)N[C@H](C(=O)NCC(=O)N[C@@H](CCCNC(=N)N)C(=O)N[C@@H](CC(N)=O)C(=O)N[C@H](C(=O)N[C@@H](Cc1ccc(O)cc1)C(N)=O)[C@@H](C)O)C(C)C)[C@@H](C)O
notes: also called compound 79
B6: N^ε1-[(4S)-4-carboxy-4-(19-carboxynonadecanoylamino)butanoyl]-[Arg14,Arg17,Pro21,Pro27,Pro31]-h-amylin (peptide)
peptide: K([γGlu-C20 diacid])CNTATCATQRLARFLRHSSPNFGAIPSSTPVGSNTY-NH2
modifications: disulfide 2-7; N-terminus assumed
SMILES: CC[C@H](C)[C@H](NC(=O)[C@H](C)NC(=O)CNC(=O)[C@H](Cc1ccccc1)NC(=O)[C@H](CC(N)=O)NC(=O)[C@@H]1CCCN1C(=O)[C@H](CO)NC(=O)[C@H](CO)NC(=O)[C@H](Cc1c[nH]cn1)NC(=O)[C@H](CCCNC(=N)N)NC(=O)[C@H](CC(C)C)NC(=O)[C@H](Cc1ccccc1)NC(=O)[C@H](CCCNC(=N)N)NC(=O)[C@H](C)NC(=O)[C@H](CC(C)C)NC(=O)[C@H](CCCNC(=N)N)NC(=O)[C@H](CCC(N)=O)NC(=O)[C@@H](NC(=O)[C@H](C)NC(=O)[C@@H]1CSSC[C@H](NC(=O)[C@@H](N)CCCCNC(=O)CC[C@H](NC(=O)CCCCCCCCCCCCCCCCCCC(=O)O)C(=O)O)C(=O)N[C@@H](CC(N)=O)C(=O)N[C@@H]([C@@H](C)O)C(=O)N[C@@H](C)C(=O)N[C@@H]([C@@H](C)O)C(=O)N1)[C@@H](C)O)C(=O)N1CCC[C@H]1C(=O)N[C@@H](CO)C(=O)N[C@@H](CO)C(=O)N[C@H](C(=O)N1CCC[C@H]1C(=O)N[C@H](C(=O)NCC(=O)N[C@@H](CO)C(=O)N[C@@H](CC(N)=O)C(=O)N[C@H](C(=O)N[C@@H](Cc1ccc(O)cc1)C(N)=O)[C@@H](C)O)C(C)C)[C@@H](C)O
notes: also called compound 63

How the values were obtained:
[1] = biological target: T1, human calcitonin receptor; experiment: cell-based or functional assay
[2] = biological target: T2, human amylin receptor (amylin 3(a) …); experiment: cell-based or functional assay

Binder	hCTR funct. EC50 [1] [pM]	hAmylin-R funct. EC50 [2] [pM]	Ratio hCT/hAmylin funct. [2]
B1	9070	296	–
B2	16800	405	41.6
B3	1140	118	9.7
B4	9330	242	–
B5	3940	161	24.5
B6	5130	37	–
